Data reported in paper PMC3333781, “Systematic mapping of two component response regulators to gene targets in a model sulfate reducing bacterium”.

Assays:
[1] = target: T1, DVU1419 response regulator (Desulfovibrio vulgaris Hildenborough) (UniProt Q72C65); experiment: EMSA; settings: EMSA: 10 mM Tris-HCl pH 7.5, 1 mM DTT, 50 mM KCl, 5 mM MgCl2, 25% glycerol, 1 ug/ml poly dI-dC, 50-100 fmol biotin-DNA, 25-30 C, 20 min
T1 sequence: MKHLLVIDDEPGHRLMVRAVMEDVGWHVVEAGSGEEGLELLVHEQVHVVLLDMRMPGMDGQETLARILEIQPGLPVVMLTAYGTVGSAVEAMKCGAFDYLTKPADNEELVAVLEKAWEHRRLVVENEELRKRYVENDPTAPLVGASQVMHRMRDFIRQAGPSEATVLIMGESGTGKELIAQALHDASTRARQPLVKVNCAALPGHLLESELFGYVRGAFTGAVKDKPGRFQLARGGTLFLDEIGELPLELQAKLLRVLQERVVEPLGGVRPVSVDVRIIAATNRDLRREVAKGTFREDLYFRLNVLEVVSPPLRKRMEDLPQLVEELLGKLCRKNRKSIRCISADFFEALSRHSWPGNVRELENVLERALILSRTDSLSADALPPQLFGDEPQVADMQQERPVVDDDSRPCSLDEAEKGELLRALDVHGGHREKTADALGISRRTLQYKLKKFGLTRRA

[2] = target: T2, DVU0946 response regulator (Desulfovibrio vulgaris Hildenborough, UniProt Q72DI3 1-476); experiment: EMSA; EMSA: 10 mM Tris-HCl pH 7.5, 1 mM DTT, 50 mM KCl, 5 mM MgCl2, 25% glycerol, 1 ug/ml poly dI-dC, 50-100 fmol biotin-DNA, 25-30 C, 20 min; settings: protein: recombinant; tags: C-terminal V5-6xHis; chain copies: 2; label: 5'-biotin top strand; blunt
T2 sequence: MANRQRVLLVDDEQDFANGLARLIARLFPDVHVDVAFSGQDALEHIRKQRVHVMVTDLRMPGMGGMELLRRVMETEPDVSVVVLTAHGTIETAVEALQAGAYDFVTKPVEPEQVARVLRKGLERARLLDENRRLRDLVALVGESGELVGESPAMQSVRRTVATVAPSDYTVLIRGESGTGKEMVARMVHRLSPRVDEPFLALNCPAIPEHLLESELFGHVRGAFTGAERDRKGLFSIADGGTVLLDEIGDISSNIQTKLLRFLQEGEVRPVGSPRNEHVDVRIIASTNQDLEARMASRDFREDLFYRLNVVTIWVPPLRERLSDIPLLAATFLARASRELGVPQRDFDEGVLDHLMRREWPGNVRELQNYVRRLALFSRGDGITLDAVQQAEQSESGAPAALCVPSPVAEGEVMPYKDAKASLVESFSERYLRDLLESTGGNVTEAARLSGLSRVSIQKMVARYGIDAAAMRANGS

[3] = target: T3, DVU0539 response regulator (Desulfovibrio vulgaris Hildenborough, UniProt Q72EN8 1-467); experiment: as above; settings: protein: recombinant; tags: C-terminal V5-6xHis; chain copies: 2; label: 5'-biotin top strand; blunt
T3 sequence: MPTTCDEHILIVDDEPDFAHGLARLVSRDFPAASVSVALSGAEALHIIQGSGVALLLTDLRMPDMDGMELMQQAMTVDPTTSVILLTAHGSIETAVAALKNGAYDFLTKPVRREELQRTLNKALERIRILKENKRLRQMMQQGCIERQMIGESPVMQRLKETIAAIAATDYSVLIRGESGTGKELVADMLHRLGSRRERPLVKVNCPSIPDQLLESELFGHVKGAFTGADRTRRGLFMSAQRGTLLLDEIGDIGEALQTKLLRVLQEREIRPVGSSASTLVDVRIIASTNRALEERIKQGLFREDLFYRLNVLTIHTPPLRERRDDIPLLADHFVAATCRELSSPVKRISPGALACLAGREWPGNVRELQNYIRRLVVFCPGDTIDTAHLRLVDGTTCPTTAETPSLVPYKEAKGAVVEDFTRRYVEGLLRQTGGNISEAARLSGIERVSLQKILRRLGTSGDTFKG

[4] = target: T4, DVU0118 response regulator (Desulfovibrio vulgaris Hildenborough, UniProt Q72FU5 1-454); experiment: as above; settings: protein: recombinant; tags: C-terminal V5-6xHis; chain copies: 2; label: 5'-biotin top strand; blunt
T4 sequence: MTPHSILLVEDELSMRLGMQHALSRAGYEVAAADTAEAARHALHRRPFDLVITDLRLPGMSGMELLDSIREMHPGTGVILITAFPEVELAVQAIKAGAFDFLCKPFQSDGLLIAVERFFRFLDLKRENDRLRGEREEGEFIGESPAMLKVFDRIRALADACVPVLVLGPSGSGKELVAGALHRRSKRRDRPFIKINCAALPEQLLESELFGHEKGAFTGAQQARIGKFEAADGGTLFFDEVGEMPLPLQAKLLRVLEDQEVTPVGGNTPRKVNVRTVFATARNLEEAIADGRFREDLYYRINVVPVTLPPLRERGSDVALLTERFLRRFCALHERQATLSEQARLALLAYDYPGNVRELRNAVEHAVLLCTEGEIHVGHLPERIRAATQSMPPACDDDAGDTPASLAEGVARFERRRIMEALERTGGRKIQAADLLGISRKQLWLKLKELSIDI

[5] = target: T4, DVU0118 response regulator; experiment: EMSA; 10 mM Tris-HCl pH 7.5, 1 mM DTT, 50 mM KCl, 5 mM MgCl2, 25% glycerol, 1 ug/ml poly dI-dC, 50-100 fmol biotinylated DNA, 25-30 C, 20 min; settings: protein: recombinant; tags: C-terminal V5-6xHis; chain copies: 2; label: 5'-biotin top strand
[6] = target: T5, DVU1063 response regulator (Desulfovibrio vulgaris Hildenborough, UniProt Q72D66 1-479); experiment: EMSA; EMSA: 10 mM Tris-HCl pH 7.5, 1 mM DTT, 50 mM KCl, 5 mM MgCl2, 25% glycerol, 1 ug/ml poly dI-dC, 50-100 fmol biotin-DNA, 25-30 C, 20 min; settings: protein: recombinant; tags: C-terminal V5-6xHis; chain copies: 2; label: 5'-biotin top strand; blunt
T5 sequence: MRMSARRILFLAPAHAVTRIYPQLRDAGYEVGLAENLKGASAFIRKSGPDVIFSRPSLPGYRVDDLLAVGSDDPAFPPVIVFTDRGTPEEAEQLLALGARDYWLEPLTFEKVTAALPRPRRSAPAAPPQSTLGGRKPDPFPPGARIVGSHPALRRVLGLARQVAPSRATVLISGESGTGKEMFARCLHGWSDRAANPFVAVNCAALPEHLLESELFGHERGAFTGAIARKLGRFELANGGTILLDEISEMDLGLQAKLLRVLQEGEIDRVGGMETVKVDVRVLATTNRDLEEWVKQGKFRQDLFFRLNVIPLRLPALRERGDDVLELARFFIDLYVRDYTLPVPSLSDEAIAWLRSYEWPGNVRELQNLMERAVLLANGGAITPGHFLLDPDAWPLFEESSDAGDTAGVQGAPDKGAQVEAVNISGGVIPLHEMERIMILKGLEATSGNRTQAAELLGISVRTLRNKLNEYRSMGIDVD

[7] = target: T6, DVU1419 response regulator (Desulfovibrio vulgaris Hildenborough, UniProt Q72C65 1-459); experiment: as above; settings: protein: recombinant; tags: C-terminal V5-6xHis; chain copies: 2; label: 5'-biotin top strand; blunt
T6 sequence: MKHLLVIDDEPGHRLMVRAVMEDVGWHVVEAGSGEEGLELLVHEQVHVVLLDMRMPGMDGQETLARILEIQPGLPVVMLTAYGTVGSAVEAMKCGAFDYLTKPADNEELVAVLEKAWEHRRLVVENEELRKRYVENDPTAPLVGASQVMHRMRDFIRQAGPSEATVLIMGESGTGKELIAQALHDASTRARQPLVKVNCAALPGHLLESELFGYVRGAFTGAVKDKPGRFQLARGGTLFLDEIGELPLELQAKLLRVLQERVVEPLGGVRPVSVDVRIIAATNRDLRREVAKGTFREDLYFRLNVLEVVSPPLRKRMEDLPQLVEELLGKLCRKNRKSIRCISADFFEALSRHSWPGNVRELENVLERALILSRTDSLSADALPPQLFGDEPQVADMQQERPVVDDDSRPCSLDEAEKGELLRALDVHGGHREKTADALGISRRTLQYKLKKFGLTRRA

[8] = target: T7, DVU2394 response regulator (Desulfovibrio vulgaris Hildenborough, UniProt Q729F7 1-463); experiment: EMSA; 10 mM Tris-HCl pH 7.5, 1 mM DTT, 50 mM KCl, 5 mM MgCl2, 25% glycerol, 1 ug/ml poly dI-dC, 50-100 fmol biotinylated DNA, 25-30 C, 20 min; settings: protein: recombinant; tags: C-terminal V5-6xHis; chain copies: 2; label: 5'-biotin top strand
T7 sequence: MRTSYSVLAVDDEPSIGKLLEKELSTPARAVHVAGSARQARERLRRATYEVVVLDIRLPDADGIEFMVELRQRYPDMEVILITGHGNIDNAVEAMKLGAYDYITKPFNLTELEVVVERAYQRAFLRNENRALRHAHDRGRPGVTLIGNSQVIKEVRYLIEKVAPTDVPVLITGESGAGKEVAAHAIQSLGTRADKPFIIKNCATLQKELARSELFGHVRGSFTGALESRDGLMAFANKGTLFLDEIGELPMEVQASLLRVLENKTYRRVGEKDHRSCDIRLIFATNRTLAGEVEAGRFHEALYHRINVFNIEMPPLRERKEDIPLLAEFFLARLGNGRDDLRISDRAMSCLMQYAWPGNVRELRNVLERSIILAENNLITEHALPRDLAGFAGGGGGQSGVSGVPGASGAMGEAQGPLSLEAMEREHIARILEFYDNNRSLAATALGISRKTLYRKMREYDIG

[9] = target: T8, DVU0679 response regulator (Desulfovibrio vulgaris Hildenborough, UniProt Q72E99 1-488); experiment: EMSA; EMSA: 10 mM Tris-HCl pH 7.5, 1 mM DTT, 50 mM KCl, 5 mM MgCl2, 25% glycerol, 1 ug/ml poly dI-dC, 50-100 fmol biotin-DNA, 25-30 C, 20 min; settings: protein: recombinant; tags: C-terminal V5-6xHis; chain copies: 2; label: 5'-biotin top strand; blunt
T8 sequence: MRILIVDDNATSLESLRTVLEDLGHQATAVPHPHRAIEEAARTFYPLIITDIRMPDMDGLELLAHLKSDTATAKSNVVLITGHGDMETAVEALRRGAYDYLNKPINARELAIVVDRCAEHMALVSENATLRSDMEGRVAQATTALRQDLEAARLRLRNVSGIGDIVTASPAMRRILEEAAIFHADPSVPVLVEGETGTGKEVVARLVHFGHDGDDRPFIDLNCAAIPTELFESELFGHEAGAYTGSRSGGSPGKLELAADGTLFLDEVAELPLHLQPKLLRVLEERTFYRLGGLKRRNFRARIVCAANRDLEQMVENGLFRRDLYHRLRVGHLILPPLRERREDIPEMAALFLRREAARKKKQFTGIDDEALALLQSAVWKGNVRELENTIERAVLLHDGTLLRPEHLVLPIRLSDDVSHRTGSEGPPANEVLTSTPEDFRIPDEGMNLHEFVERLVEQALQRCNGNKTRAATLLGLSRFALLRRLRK

For “GTCGGCGATTTCCATGAAGACTCCGGTGGTGTCTGGCGGGACATGAAAGAACTGTGCCGAAGGGTGACACCCCGGCAGATGCTGATGCCGGGTGCGCCACCACAGGCCAGCCCTTGCACCATGTCGCATCGCAAGGTCTCTGCGTTGCCTCGCAACGCGGTGCCGTGCACCATGAATGTGCAAACGATGGCACACAACGCCACGGCGTGCAATAAGATGCACACCACCTGCACATATCAAGCCTCATGTGAAGGAAAAGGACGGC (double strand) [DVU1418 upstream]”, the binding [1] was “binds”.

B1: DVU0943 motif wt (dsDNA)
DNA 1: AGGTTTACGATGCAAAGTGATGTTTGCAGCTTGCCGAG
DNA 2: CTCGGCAAGCTGCAAACATCACTTTGCATCGTAAACCT
B1: binds [2]; binds [3].

B2: DVU0123 motif wt (dsDNA)
DNA 1: CGAACAGGAACATGTTCCCTCAAAGGAACATCGTTGGTGGAA
DNA 2: TTCCACCAACGATGTTCCTTTGAGGGAACATGTTCCTGTTCG
B2: binds [4].

B3: DVU0123 motif mut (dsDNA)
DNA 1: CGAACAGGAACTTCTTGCCTCAAAGGTACGTCGTTGGTGGAA
DNA 2: TTCCACCAACGACGTACCTTTGAGGCAAGAAGTTCCTGTTCG
B3: no binding [5].

B4: DVU1032 motif wt (dsDNA)
DNA 1: GGCATGGTCGGGCGGCAGTTTTTTCCTGTATCCTG
DNA 2: CAGGATACAGGAAAAAACTGCCGCCCGACCATGCC
B4: binds [6].

B5: DVU1418 motif wt (dsDNA)
DNA 1: GCCGTGGCGTTGTGTGCCATCGTTTGCACATTCATGGTGC
DNA 2: GCACCATGAATGTGCAAACGATGGCACACAACGCCACGGC
B5: binds [7].

B6: DVU1418 motif mut (dsDNA)
DNA 1: GCCGTGGCGTTGTATGCCATCGTTTGCTCGTTCATGGTGC
DNA 2: GCACCATGAACGAGCAAACGATGGCATACAACGCCACGGC
B6: no binding [7].

B7: DVU2405 motif mut (dsDNA)
DNA 1: TCCAGCCATCTATGTTTTTTCGTGACTATGTTGAAGTTCGACCCAA
DNA 2: TTGGGTCGAACTTCAACATAGTCACGAAAAAACATAGATGGCTGGA
B7: no binding [8].

B8: DVU0677 motif wt (dsDNA)
DNA 1: AATCGCACGCCGTGCGTATTCGCACGTGCTTTTCCG
DNA 2: CGGAAAAGCACGTGCGAATACGCACGGCGTGCGATT
B8: binds [9].
